Assay results published in the nanobody polyreactivity screen of Harvey et al. (2022).

Test: yeast display, Sf9 membrane polyspecificity reagent, FACS + sequencing; frameworks hold sequencing errors
Method in brief: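 Sorting gates, low and high (top ~1%), were placed on anti-HA fluorescence to track expression and on streptavidin fluorescence to track reagent binding. A clone's polyreactivity label is taken from the gate it came out of. The reagent was 10% biotinylated, detergent-solubilized Sf9 membrane, applied for 1 hour at 4 °C to galactose-induced yeast display cells.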

With “QVQLVESGGGLVQAGGSLRLSCAASGSTFVPYTMGWYRQAPGKERELVAAISGSGGTDYADSVKGRFTISRDNAKITVYLQLNSLKPEDTAVYYCGTDGLDFWFIYDYWGQGTQVTVSS” the “polyreactivity (PSR sort gate)” value was “low polyreactivity”.
For “QVQLVESGGGLVQAGGSLRLSCAASGRIFWLYAMGWYRQAPGKERELVAAITGIGGSTYYADSVKGRFTISRDNAKNTVYLQMNSLKPEDTAVYYCAARYPATYPSMGYWGQGTQVTVSS”, the “polyreactivity (PSR sort gate)” value was “low polyreactivity”.
For “QVQLVESVGGLVQAGGSLRLSCAASGSTFGFNAMGWYRQAPGKERELVAAIRRSDSSTYYADSVKGRFTISRDNAKNTVYLQMNSLKPEDTAVYYCAADVWVSWLLFKYEYWGQGTQVTVSS”, the “polyreactivity (PSR sort gate)” value was “low polyreactivity”.
With “QVQLVESGGGLVQAGGSLRLSCAASGSIFRAYAMGWYRQAPGKERELVATISWSGTSTSYADSVKGRFTISRDNAKNTVYLQMNSLKPEDTAVYYCAAGYASGPRPQTAYYYWGQGTQVTVSS” the “polyreactivity (PSR sort gate)” value was “low polyreactivity”.
With “QVQLVESGGGLVQPGGSLRLSCAASGFIYSYYAMGLYRPAPGKERELVAVITRSVGSTYYADSVKGRFTISRDNAKNTVYLQMNSLKPEYTAVYYCAAGYFYHFSRYTNRYGYWGQGTQVTVSS” the “polyreactivity (PSR sort gate)” value was “high polyreactivity”.
With “QVQLVESGGGLVQAGGSLRLSCAASGRTFGINAMGWYRQAPGKERELVAVISFGDGGTYYADSVKGRFTISRDNAKNTVYLQMNSLKPEDTAVYYCAAAIWYIKLYFVRRTEHGYWGQGTQVTVSS” the “polyreactivity (PSR sort gate)” value was “low polyreactivity”.
For “QVQLVESGGGLVQAGGSLRLSCAASGRIFYRYAMGWYRQAPGKERELVASISGSGGRTYYADSVKGRFTISRDNAKNTVDLQMNSLKPEDTAVYYCAARIRPSYDWGQGTQVTVSS”, the “polyreactivity (PSR sort gate)” value was “high polyreactivity”.
With “QVQLVESGGGLDQAGGSLRLSCAASGFAFSYYAMGWYRQAPGKEREFVASIDWSGGSTYYADSVKGRFTISRDNAKNTVYLQMNSLKPEDTAVYYCAAELDYFPGYDYWGQGTQVTVSS” the “polyreactivity (PSR sort gate)” value was “low polyreactivity”.
With “QVLLVESGGGLVQEGGSLRLSCSASGFTFDSNAMGWYRQAPGKERELVAAISTGGSTYYADSVKGRFTISRDNAKNTVYLQMNSLKPEDNAVYYCAREPPYPDTWYGYWGQGSQVTVSS” the “polyreactivity (PSR sort gate)” value was “low polyreactivity”.
In the case of “QVQLVESGGGLVQAGGTLRLSCAASGRTFNGNAMGWYRQAPGKERELVAAISGGSTSYADSVKGRFTISRDNAKNTVYLQMNSLKPEDTAVYYCAATYIRRTIFRYNSWGQGTQVTVSS”, the “polyreactivity (PSR sort gate)” value is reported as “low polyreactivity”.
In the case of “QVQLVESGGGLVQAGGSLRLSCAASGRTFPQNAMGWYRQAPGKERELVAAISRSGGRTYYADSVKGRFTISRDNAKNTVYLQMNSLKPEDTAVYYCNTDPRYPRYDYSGQGTQVTVSS”, the “polyreactivity (PSR sort gate)” value is reported as “high polyreactivity”.
For “QVQLVESGGGLVQAGGSLGLSCAASGRTLYRYAMGWYRQARGKERELVAAIRSGGRTNYADSVKGRFTISRDNAKNTVYLQMNSLKPEDTAVYYCAAGTLRYPSTYVDWGQGTQVTVSS”, the “polyreactivity (PSR sort gate)” value was “high polyreactivity”.
With “QLQLVESGGGLVQAGGSLRLSCAASGLIFTYYAMGWYRQAPGKERELVAAISGRGGSTYYADSVKGRFTISRDSAMKTVYLQMNSLNPEDTAVYYCAAVRWAGYVSDYGYWGQGTQVTVSS” the “polyreactivity (PSR sort gate)” value was “high polyreactivity”.
For “QVQLVESCGGLVQAGGSLRLSCAASGRIFPYNAMGWYRQAPGKERELVAAIDWRDNTYYADSVKGRFTISRDNAKNTVYLQMNSLKPEDTAVYYCNVDYTDYFLNKYDYWGQGTQVTVSS”, the “polyreactivity (PSR sort gate)” value was “low polyreactivity”.
With “QVQLVQSGGGLVQAGGSLRLSCAASGIIFFKYAMGWYRQAPGKERELVAAITESTSSTYYADSVKGRFTISRDNAKNTVYLEMNSMKTEDTAVYYCAARVSQWLPYGGYSRYYYWGQGTQVTVSS” the “polyreactivity (PSR sort gate)” value was “high polyreactivity”.
For “QVQLVESGGGLVQAGGSLRLSCAASGGTLVRYAMGWYRQAPGKERELVAAIDRDGDSTYYADSVKGRFTISRDNAKNTVYLQMNSLKPEDTAVYYCNADEIRQTDGYDYWGQGTQVTVSS”, the “polyreactivity (PSR sort gate)” value was “high polyreactivity”.
In the case of “QVQLVESGGGLVQAGGSLSLSCDASGSTFYTYAMGWSRQEPGKERELVAAITSSGGSTYYADSVKGRFTISRDNAKNTVYLLMNSLKPEDTAVYYCAARVLGGFGFWGQGTQVTVSS”, the “polyreactivity (PSR sort gate)” value is reported as “high polyreactivity”.
In the case of “QVQRVESGGGLVQAGGSHRLSCAASGSIFVVYTMGWYRPAPGKERELVAAITQNGGSSTYYADSVKGRFTISRDNAKNTVYLQMNSLKPEDTAVYYCNKDILSPVVRIFKYGYDMDYWGQGTQETVSS”, the “polyreactivity (PSR sort gate)” value is reported as “low polyreactivity”.
In the case of “QVQLVESGGGLVQAGGSLSLRCASSGSTFAYYAMGWYRQAPGKERELVAGNNWTGGSTYYADSVKGRFTISRDNAKNTVYLQMNSLKPEDTAVYYCAVTYPYGYEYDHWGQGTQVTVSS”, the “polyreactivity (PSR sort gate)” value is reported as “low polyreactivity”.
For “QVQLVESGGGLVQAGGSLRLSCAASGRTFQWYAMGWYRQAPGKERELVAGISFSGGSTYYADSVKGRFTISRDNAKNTVYLQMNSLKPEDTAVYYCAARRFSPGSSGHGYWGQGTQLTVSS”, the “polyreactivity (PSR sort gate)” value was “high polyreactivity”.
With “QVQLVESGGGLVQAGGSLRLICAASGFIFTANVMGWYRQAPGKERELVAAISRSGGSTYYADSVKGRFTISRDNAKNTVYLQMNSLKPEDTAVYYCAKLRRDARYDYWGQGTQVTVSS” the “polyreactivity (PSR sort gate)” value was “high polyreactivity”.
With “QVLLVESGGGLVQAGGSLRLSCAASGSTFVVNTMRWYRLAPGKERELVAAISTGSSTYADSVKGRFTISRDNAKKTVYLQMNSLKPEDTAVYYCNTAFPGKYDYWGQGTQVTVSS” the “polyreactivity (PSR sort gate)” value was “low polyreactivity”.
In the case of “QVQLVESGGCLVQAGGSLRLICAASGRIVKYAMGWYRQAPGKERELVAAISGSGGTTYYADSVKGRFTISRDNAKNTVYLQMNSLKPEDTAVYYCAASRPRPPSSRRMDYWGQGTQVTVSS”, the “polyreactivity (PSR sort gate)” value is reported as “high polyreactivity”.
For “QVQLVESGGGLVQAGGSLRLSCAASGLIFTYYAMGWYRQAPGKERELVAAIRVNGGSTYYADSVKGRFTISRDNAKNTVYFQMNSLKPEDTAVFYCAADYYRLRAASYLIRLNYWGQGTQVTVSS”, the “polyreactivity (PSR sort gate)” value was “high polyreactivity”.
With “QVQLVESGGGLVQAGGSLRVSCAASGRTFPYYDMGWYRQAPGKEREFVAAITWRGGSTYYADSVKGRFTISRDNAKNTVYLQMNSLKPEDSAVYYCATDSLRLYGGKRDLYYWGQGTQVTVSS” the “polyreactivity (PSR sort gate)” value was “low polyreactivity”.
With “QVQLVESGVGLVQAGGSLRLSCAASGRTFNSYAMGWYRQAPGKERELVATISSRGGNTFYADSLKGRCTISRDNAKNTVYLQMNSLKPEDTAVYYCAARRGVRKYPSAGYEYWGQGTQVTVSS” the “polyreactivity (PSR sort gate)” value was “high polyreactivity”.
With “QVQLVESGGGLVQAGGSLRLSCAASGSTFYQYAMGWYRQSPGKERELVAAISGISGSTSYADSVKGRFTISRDNAKNTVYLQMNSLKPEDTAVYYCAKGTAPIPYRGRVGTSKSDYWGQGTQVTVSS” the “polyreactivity (PSR sort gate)” value was “low polyreactivity”.
In the case of “QVQLVESGGGLVQAGGSLRLSCAASGIIFSGNAMGWSRQAPGKERELVAAITLSGGSTYYADSVKGRFTISRDNAKNTVYLQMNSLKPEDTAVYYCNAVYDTKYSLRDIDTEYGSWGQGTQVTVSS”, the “polyreactivity (PSR sort gate)” value is reported as “low polyreactivity”.
For “QVQLVESGGGLVQAGGSLRLISAASGGISSLNAMGWYSQAPGKERELVAAIDWIGGSTYYADSVKGRFTISRDTAKNTVYLQKNSLKPEDTAVYYCGKRGVYGDRYYYWGQGTQVTVSS”, the “polyreactivity (PSR sort gate)” value was “high polyreactivity”.
With “QVQLVESGGGLVQAGGSLRVSCAASGSIFSYYDMGWYRPAPGKERELVAAITDGGDRTYYADSVKGRFTISRDNAKNTVYLQMNSLKPEHTAVYYCAAVVSVNMYWGQGTQVTVSS” the “polyreactivity (PSR sort gate)” value was “low polyreactivity”.
For “QVQLVESGGGLVQAGGSLRLSCAASGRIIGSNTMGWYRQAPGKEREFVATISSSGGSTYYADSVKGRFTISRDNAKNTVYLQMNSLKPEDTSVYYCAAPWSSGSRGGYDYWGQGTQVTVSS”, the “polyreactivity (PSR sort gate)” value was “high polyreactivity”.
With “QVQLEESGGGLVQAGGSLRLSCAASGRIFRYYAMGWSRQAPGKERELVAGISRGTSTYYADSVKGRFTISRDNAKNTVYLQMNSLKPEDTAVYYCAKGSIQYFRPYTFYSWGQGTQVTVSS” the “polyreactivity (PSR sort gate)” value was “high polyreactivity”.
For “LVKLQESGGGLVQAGGSLRLSCAASGTISPGGYMGRYRQAPGKEGELVASINVGGSTNYADSVKGRFTISRDNAKNTVYLQMNSLIPEDNAVYYCAVWGRNRLQLSYWGQGTQVTVSS”, the “polyreactivity (PSR sort gate)” value was “low polyreactivity”.
With “QVQLVESGGGLVQAGGILRLSCAASGSIFNYYAMGWYRQAPGKEREMVAAITTSGGRTYYADSVKGRFTISRDNAKNTVYLQMNSLKPEDTAVYYCAARGYGRRAYVYRYDYWGQGTQVTVSS” the “polyreactivity (PSR sort gate)” value was “high polyreactivity”.
With “QVQLVESVGGLVQAGGSLRLSCAASGIIFSYYAMGWYRQPPGKERELVAVISSGGGSTYYADSVKGRFTISRDNAKNTVYLQMNSLKPDDTAVYYCNADRVDRELFTFDYWGQGTQVTVSS” the “polyreactivity (PSR sort gate)” value was “high polyreactivity”.
For “QVQLVESGGGLVQAGGSLRISCAASGGIFWTYAMGWYRQEPGKERELVAAISYSDGITYYADSVKGRFTISRDNAKNTVYFQMNSLKPEDTAVYYCAADPELAVPMYYWGQGTQVTVSS”, the “polyreactivity (PSR sort gate)” value was “low polyreactivity”.
With “QVQLVESGGGLVQAGGSLRLSCAASGSTFKRNAMGWYRQAPGKERELVASISKRGGSTYYADSVKGRFTISRDNAKNTVYLQMNSLKPEDTAVYYCAKTWQNGDRNTIGSVYAYYSWGQGTQVTVSS” the “polyreactivity (PSR sort gate)” value was “high polyreactivity”.
For “QVQLVESGGGLVQAGGSLRLSCAASGSTLNRYAMGWYRQAPGKERELVAAINGSGGSTYYADSVKGRFTISRENAKNTVYLLINSLKQEDSAVYYCAAYGYSFAYGAYGYWGQGTQVTVSS”, the “polyreactivity (PSR sort gate)” value was “high polyreactivity”.
With “HVQLVESGGGLVQAGGSLRLSCAASGRTFNVNAMGWYRQAPGKERELVAAIDFSDGRTYYADSVKGRFTISRDNAKNTVYLQMNSLKPEDTAVYYCARSFRVGNTWYDYWGQGTQVTVSS” the “polyreactivity (PSR sort gate)” value was “high polyreactivity”.
With “QVQLVESGGGLVQAGGSLRLSCAASGLALGWYRQAPGKERELVAVITSDGRTYYADSVKGRFTISRDNAKNTVYLQLNSLKPEDTAVYYCARDSRTIRYYAWFYPFRYDYWGQGTQVTVSS” the “polyreactivity (PSR sort gate)” value was “low polyreactivity”.
With “QVQLVESGGGLVQAGGSLRISCAASGITLINDAMGWYRQAPGKERELVAAITYRGVSTYYADSVKGRFTISRDNAKNTVYLQMKSLKPEDTAVYYCAAGYYWQYTSSSAQYSYDYWGQGTQVTVSS” the “polyreactivity (PSR sort gate)” value was “low polyreactivity”.
In the case of “KVQLVESGGGLVQAGGSLRLTCAASGRIFPYYAMGWYRQAPGKERELVASIRYSAGNTYYADSVKGRFTISRDNAKNTVYLQMNSLKPEDTAVYYCWYTQNTLGNYWGQGTQVTVSS”, the “polyreactivity (PSR sort gate)” value is reported as “low polyreactivity”.
For “QVQLVESGGGLVQAGGSLRLSCAASGSTFEAYAMGWYRQAPGKERELVATITGSGGRTYADSVKGRFTITRDNAKNTVYLQMNSLKPEDTAVYYCAADCLKVAEYDYWGQGTQVTVSS”, the “polyreactivity (PSR sort gate)” value was “low polyreactivity”.
